Results from PMC12650317 (Biomolecules, 2025).

T1: BVDV NS3 recombinant protein (Bovine viral diarrhea virus 1, RefSeq …)
T1 chain: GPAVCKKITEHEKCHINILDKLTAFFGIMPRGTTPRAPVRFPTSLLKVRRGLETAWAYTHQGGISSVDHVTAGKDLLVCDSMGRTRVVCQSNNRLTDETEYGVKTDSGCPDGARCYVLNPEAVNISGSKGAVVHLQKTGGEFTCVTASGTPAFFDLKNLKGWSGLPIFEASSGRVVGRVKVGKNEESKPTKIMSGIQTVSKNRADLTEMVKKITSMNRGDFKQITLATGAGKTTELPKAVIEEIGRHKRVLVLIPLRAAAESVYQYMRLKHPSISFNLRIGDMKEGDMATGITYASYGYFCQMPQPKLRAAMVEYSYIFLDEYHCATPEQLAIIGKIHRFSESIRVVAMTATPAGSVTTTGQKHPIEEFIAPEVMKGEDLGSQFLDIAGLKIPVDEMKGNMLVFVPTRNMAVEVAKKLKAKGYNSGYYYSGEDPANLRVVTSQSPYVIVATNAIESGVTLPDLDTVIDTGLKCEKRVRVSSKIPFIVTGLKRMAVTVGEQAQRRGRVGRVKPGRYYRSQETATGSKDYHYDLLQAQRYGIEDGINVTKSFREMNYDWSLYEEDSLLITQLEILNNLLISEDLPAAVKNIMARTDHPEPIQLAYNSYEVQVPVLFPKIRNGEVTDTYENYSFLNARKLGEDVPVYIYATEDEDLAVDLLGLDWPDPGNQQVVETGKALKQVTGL

B1: Nb19 (VHH)
VHH: QVQLQESGGGLVQPGGSLRLSCAASGFTFQTYSMGWVRQAPGKGLEWVSSISGDGSTYYSDSVKGRFTISTDNANTLYLQMNSLKSEDTAVYYCAKERSPADYRNWLMPYWGKGTLVTVSS
notes: also called nanobody Nb19
B2: Nb10 (VHH)
VHH: QVQLQESGGGLVQPGGSLRLSCAASGETARSGACGWFRQAPGKEREGVASINRYGFRTYADSVKGRFTISTDNAKNTVDLQMSNLRPEDTAAYYCAADSLTFWSAPCCSSTSPGTWGQGTQVTVSS
notes: also called nanobody Nb10
B3: Nb11 (VHH)
VHH: QVQLQESGGGSVQPGGSRRLSCEGSGETLGYRRQTWFRQAPGKEREGVSCISSLDDGTYYKDSVKGRFTISRDNANKMVYLQMNSLEPEDTAIYYCAADPERSSYSGPLGSLGYSYWGQGTQVTVSS
notes: also called nanobody Nb11
B4: Nb22 (VHH)
VHH: QVQLQESGGGLVQPGGSLRLSCRASGYTSCMAWFRQAPKEREGVASINSDGSTAYADSVQGRFTISRDNTMNTLYLQMNSLKPEDTAMYYCAAERPSSCLPRNIWVDTNYWGQGTQVTVSS
notes: also called nanobody Nb22
B5: Nb15 (VHH)
VHH: QVQLQESGGGLVQPGGSLRLSCAASGGSLTYYCMAWFRQTPGKEREWVSCISNYGFTINYADSVKGRFSISRDNAKNTVYLAMHIPEPEDTGVYVCADLSFEHLYYCSTAQSEGSEWGQGTQVTVSS
notes: also called nanobody Nb15

Columns and labels:
[1] = target: T1, BVDV NS3 recombinant protein; test: ELISA; indirect ELISA (i-ELISA); NS3 or NS5A coated on 96-well plates (10 ug/mL for the panning and serum ELISA); OD450 read; nanobody targeting PRRSV as negative control
[2] = target: BVDV NS5A recombinant protein (Bovine viral diarrhea virus 1, RefSeq …, UniProt P19711); test: as above
Sequence of BVDV NS5A recombinant protein (P19711 2774-3269): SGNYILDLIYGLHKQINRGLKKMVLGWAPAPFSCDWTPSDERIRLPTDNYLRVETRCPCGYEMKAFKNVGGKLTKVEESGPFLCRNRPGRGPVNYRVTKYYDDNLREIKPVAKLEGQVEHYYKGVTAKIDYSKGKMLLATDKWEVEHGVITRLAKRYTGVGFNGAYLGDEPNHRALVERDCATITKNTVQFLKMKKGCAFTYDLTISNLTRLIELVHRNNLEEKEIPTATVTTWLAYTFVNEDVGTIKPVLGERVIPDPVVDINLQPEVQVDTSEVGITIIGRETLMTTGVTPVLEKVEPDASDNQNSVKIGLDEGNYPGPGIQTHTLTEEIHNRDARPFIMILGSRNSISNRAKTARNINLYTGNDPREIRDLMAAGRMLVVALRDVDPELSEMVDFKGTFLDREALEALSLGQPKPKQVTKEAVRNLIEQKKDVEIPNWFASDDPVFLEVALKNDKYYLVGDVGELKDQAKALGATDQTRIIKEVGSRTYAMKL

Row | Binder | binding result [1] | binding result [2]
1 | B1 | binds | –
2 | B2 | – | binds
3 | B3 | – | binds
4 | B4 | binds | –
5 | B5 | – | binds
